Measured values taken from paper PMC6684372.
Substitutions are numbered along the chain they refer to.

B1: 8-oxoG37(G:C) (dsDNA)
DNA 1: CCGAGTCATTCCTGCAGCGAGTCCATGGGAGTCAAAT
DNA 2: ATTTGACTCCCATGGACTCGCTGCAGGAATGACTCGG
modifications: 8-oxoG at position 21 of strand 1 (printed as Z), opposite C
B2: UD37 (dsDNA)
DNA 1: B1 DNA 1
DNA 2: B1 DNA 2
B3: 8-oxoG37(G:A) (dsDNA)
DNA 1: B1 DNA 1
DNA 2: B1 DNA 2 with C17A
modifications: 8-oxoG at position 21 of strand 1 (printed as Z), opposite A

How the values were obtained:
Experiment in all cases: EMSA
[1] = molecular target: UV-DDB (DDB1-DDB2 heterodimer) (Homo sapiens) (UniProt Q16531+Q92466); details: N at position 20 of strand 1 = tetrahydrofuran (abasic analog), opposite T
UV-DDB (DDB1-DDB2 heterodimer) (Homo sapiens), sequence (Q16531 whole entry, chain 1 of 2): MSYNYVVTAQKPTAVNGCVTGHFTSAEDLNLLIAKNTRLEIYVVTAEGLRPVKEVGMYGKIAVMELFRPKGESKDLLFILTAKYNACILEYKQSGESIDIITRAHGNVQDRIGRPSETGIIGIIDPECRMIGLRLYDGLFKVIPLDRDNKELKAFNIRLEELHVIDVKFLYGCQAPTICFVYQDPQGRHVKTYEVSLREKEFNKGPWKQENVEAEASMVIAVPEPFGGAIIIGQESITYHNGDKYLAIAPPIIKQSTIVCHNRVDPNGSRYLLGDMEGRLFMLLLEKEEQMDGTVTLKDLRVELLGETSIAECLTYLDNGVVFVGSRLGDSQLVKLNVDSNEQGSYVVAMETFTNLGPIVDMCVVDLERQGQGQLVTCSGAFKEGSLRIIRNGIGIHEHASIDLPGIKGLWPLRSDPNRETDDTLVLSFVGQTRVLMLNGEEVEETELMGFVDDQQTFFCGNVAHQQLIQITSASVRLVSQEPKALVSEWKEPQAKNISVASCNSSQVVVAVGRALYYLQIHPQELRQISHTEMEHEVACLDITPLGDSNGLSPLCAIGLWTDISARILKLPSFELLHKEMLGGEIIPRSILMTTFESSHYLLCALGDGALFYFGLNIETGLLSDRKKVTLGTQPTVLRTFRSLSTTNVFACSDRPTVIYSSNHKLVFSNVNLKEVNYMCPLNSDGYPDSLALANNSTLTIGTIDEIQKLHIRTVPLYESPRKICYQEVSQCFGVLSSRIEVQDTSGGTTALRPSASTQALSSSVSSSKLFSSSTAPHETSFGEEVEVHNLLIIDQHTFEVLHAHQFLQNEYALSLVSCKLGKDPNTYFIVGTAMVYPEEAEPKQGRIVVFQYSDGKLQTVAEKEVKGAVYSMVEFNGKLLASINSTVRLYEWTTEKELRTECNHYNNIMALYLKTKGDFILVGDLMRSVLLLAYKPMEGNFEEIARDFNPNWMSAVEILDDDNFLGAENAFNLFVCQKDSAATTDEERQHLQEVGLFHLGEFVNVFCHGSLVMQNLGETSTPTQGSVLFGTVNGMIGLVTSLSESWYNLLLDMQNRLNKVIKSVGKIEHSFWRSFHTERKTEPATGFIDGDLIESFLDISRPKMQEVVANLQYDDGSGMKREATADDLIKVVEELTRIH
UV-DDB (DDB1-DDB2 heterodimer) (Homo sapiens), sequence (Q92466 whole entry, chain 2 of 2): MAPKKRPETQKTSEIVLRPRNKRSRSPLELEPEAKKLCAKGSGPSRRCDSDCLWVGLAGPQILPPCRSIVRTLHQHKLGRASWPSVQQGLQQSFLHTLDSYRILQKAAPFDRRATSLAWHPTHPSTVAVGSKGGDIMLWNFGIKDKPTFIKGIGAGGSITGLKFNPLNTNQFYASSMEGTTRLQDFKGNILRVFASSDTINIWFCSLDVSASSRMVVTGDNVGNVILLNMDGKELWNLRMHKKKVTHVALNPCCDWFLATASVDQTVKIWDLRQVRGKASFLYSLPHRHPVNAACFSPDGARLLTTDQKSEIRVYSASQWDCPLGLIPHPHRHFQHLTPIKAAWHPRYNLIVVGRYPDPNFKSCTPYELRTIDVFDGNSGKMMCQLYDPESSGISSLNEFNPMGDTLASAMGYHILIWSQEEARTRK

[2] = molecular target: OGG1 (Homo sapiens, UniProt O15527 1-345)
OGG1, sequence (O15527 whole entry): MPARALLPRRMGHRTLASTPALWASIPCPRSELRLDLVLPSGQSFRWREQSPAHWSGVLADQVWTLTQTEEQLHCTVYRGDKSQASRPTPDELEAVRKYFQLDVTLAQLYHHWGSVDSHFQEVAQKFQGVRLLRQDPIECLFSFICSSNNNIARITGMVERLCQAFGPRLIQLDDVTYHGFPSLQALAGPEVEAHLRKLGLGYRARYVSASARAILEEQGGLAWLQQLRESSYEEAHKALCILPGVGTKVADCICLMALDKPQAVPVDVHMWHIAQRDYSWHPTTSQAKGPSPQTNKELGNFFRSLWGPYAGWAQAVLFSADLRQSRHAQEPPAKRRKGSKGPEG

[3] = molecular target: UV-DDB (DDB1-DDB2 heterodimer) (Homo sapiens, UniProt Q16531;Q92466 1-1140;1-427)
UV-DDB (DDB1-DDB2 heterodimer), sequence (Q16531 whole entry, chain 1 of 2): as the sequence (Q16531 whole entry, chain 1 of 2) above
UV-DDB (DDB1-DDB2 heterodimer), sequence (Q92466 whole entry, chain 2 of 2): as the sequence (Q92466 whole entry, chain 2 of 2) above

Molecule	Kd [1] [nM]	binding signal [2]	Kd [3] [nM]
CCGAGTCATTCCTGCAGCGNGTCCATGGGAGTCAAAT / ATTTGACTCCCATGGACTCGCTGCAGGAATGACTCGG [THF37]	3.9		
B1		~3 fold lower affinity than THF37	160 ± 12.4
B2			1110 ± 95.5
B3			164 ± 14.8
